Data published in article PMC8892499.
Like-named read-outs stand apart in the source and are kept apart here.

Tests used:
[1] = molecular target: OmpX_(1,149), double-cysteine variant of outer membrane protein X, labeled with FRET donor and acceptor dyes, unfolded (uOmpX) (UniProt P0A917); test: single-molecule FRET (smFRET) titration, intramolecular FRET of labeled uOmpX; 20 pM labeled uOmpX diluted from 6 M GdmCl into buffer with chaperone (Skp3 from 0.5 nM to 2.5 µM; SurA 46 nM to 25 µM); 20 mM Tris-HCl pH 8.0, 150 mM NaCl, 6 mM GdmCl, 87.5 nM LDAO; 37 °C; bound fraction from three Gaussian distributions; Hill coefficient set to 1 (Skp3) and 1.5 (SurA)
[2] = molecular target: OmpX_(1,149), double-cysteine variant of outer membrane protein X, labeled with FRET donor and acceptor dyes, unfolded (uOmpX) (UniProt P0A917); test: single-molecule FRET (smFRET) titration, intramolecular FRET of labeled uOmpX; global analysis of FRET efficiency distributions at different chaperone concentrations and temperatures (25, 31, 37 °C); ΔH and ΔS from the temperature dependence of Ka; errors by bootstrapping
[3] = molecular target: OmpX_(1,149), double-cysteine variant of outer membrane protein X, labeled with FRET donor and acceptor dyes, unfolded (uOmpX) (UniProt P0A917); test: single-molecule FRET (smFRET) titration, intramolecular FRET of labeled uOmpX; as the titration at 37 °C, but at 25 °C: 20 pM labeled uOmpX in buffer with Skp3 or SurA; 20 mM Tris-HCl pH 8.0, 150 mM NaCl; Hill coefficient set to 1 (Skp3) and 1.5 (SurA)
[4] = molecular target: OmpX_(1,149), double-cysteine variant of outer membrane protein X, labeled with FRET donor and acceptor dyes, unfolded (uOmpX) (UniProt P0A917); test: single-molecule FRET (smFRET) titration, intramolecular FRET of labeled uOmpX; global analysis of FRET efficiency distributions at different chaperone concentrations and temperatures (25, 31, 37 °C); ΔH and ΔS from the temperature dependence of Ka; errors by bootstrapping; remark: listed apart in the source
[5] = molecular target: OmpX_(1,149), double-cysteine variant of outer membrane protein X, labeled with FRET donor and acceptor dyes, unfolded (uOmpX) (UniProt P0A917); test: single-molecule FRET (smFRET) titration, intramolecular FRET of labeled uOmpX; 20 pM labeled uOmpX diluted from 6 M GdmCl into buffer with chaperone (Skp3 from 0.5 nM to 2.5 µM; SurA 46 nM to 25 µM); 20 mM Tris-HCl pH 8.0, 150 mM NaCl, 6 mM GdmCl, 87.5 nM LDAO; 37 °C; bound fraction from three Gaussian distributions; Hill coefficient set to 1 (Skp3) and 1.5 (SurA); remark: listed apart in the source

survival factor A (SurA) (from UniProt P0ABZ6 21-428) (natural protein)
Kd [1]: 8200 nM | c1/2 (inverse of Ka) [1]: 407 nM | percent of uOmpX molecules bound at ~6 µM SurA [1]: 87% | dH [2]: -31.5 kcal/mol | Kd [3]: 1000 nM | c1/2 (inverse of Ka) [3]: 103 nM

B1: 17-kilodalton protein (Skp), trimer (Skp3) (natural protein)
chain: ADKIAIVNMGSLFQQVAQKTGVSNTLENEFKGRASELQRMETDLQAKMKKLQSMKAGSDRTKLEKDVMAQRQTFAQKAQAFEQDRARRSNEERGKLVTRIQTAVKSVANSQDIDLVVDANAVAYNSSDVKDITADVLKQVK
Kd [3]: 3.6 nM | c1/2 (inverse of Ka) [3]: 3.55 nM | dH [4]: -71.2 kcal/mol | Kd [5]: 359 nM | c1/2 (inverse of Ka) [5]: 359 nM | percent of uOmpX molecules bound at 2.5 µM Skp3 [5]: 80%
